Reference: paper doi:10.1101/2021.04.24.441265

Molecular target: C/EBPβ bZIP domain (mouse, UniProt P28033 221-296)
Assay: fluorescence polarization

Chain of C/EBPβ bZIP domain (P28033 221-296): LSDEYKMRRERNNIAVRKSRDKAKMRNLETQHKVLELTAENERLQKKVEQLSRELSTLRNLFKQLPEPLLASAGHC

B1: FP_CREBmeth (half-CRE•C/EBP Il36A, methylated) (dsDNA)
DNA 1: CATCTTACGTCACCT
DNA 2: AGGTGACGTAAGATG
modifications: mC at strand 1 position 8 and strand 2 position 7 (CpG, both strands)
Kd: 100 ± 30 nM
